Like-named read-outs stand apart in the source and are kept apart here.
Key:
CCK2R positive tumors = conditions: athymic mouse model; cited from earlier work
Source text: About 90% of medullary thyroid carcinomas (MTCs) express the transmembrane G protein–coupled cholecystokinin 2 receptor (CCK2R) at a high density, making CCK2R an interesting target for peptide receptor radionuclide therapy (PRRT). Recently, a new generation of radiolabeled minigastrin derivatives, targeting CCK2R, with improved and promising properties was introduced. First clinical trials explore the potential of such compounds for imaging and PRRT of CCK2R expressing tumors, in particular for MTC [3–5]. However, the reported tumor radiation doses were lower than those usuall ...

Dosimetry of kidneys = type: in vivo, humans; conditions: for Kidney dose: median
Description: (§1) Planar whole-body scintigraphy and quantitative SPECT/CT acquisitions of neck/thorax/abdomen/pelvis were acquired with a hybrid SPECT/CT system (Siemens Intevo, Siemens Erlangen, Germany) at 1, 4, 24 and 72 h post injection (p.i.).
Kidney dosimetry was performed using the dosimetry workflow in the DRT, which includes automatic organ segmentation, time activity curve modelling, and absorbed dose calculation using the medical internal radiation dosimetry (MIRD) method and voxel dosimetry.
After automatic organ segmentation in the 24 h SPECT images, the kidney VOIs were manually corrected to ensure accurate segmentation. Then, the SPECT images at 1, 4 and 72 h where manually co-registered to the 24 h images. Time activity curves were fitted to the measured kidney activity at the four time points using a single exponential function. The calculated and measured data were then used to estimate the absorbed dose in the kidneys using the MIRD method.
Bone marrow and kidney dosimetry was performed as described before.

[1] = SPECT/CT based dosimetry of tumors; type: in vivo, humans; conditions: human, iv, total radioactivity
Description: (§2) Patients were allowed a light breakfast at the day of each infusion. […] Entresto® was given at an oral dose of 100 mg, containing 48.6 mg sacubitril and 51.4 mg valsartan 2 h before the start of one of the two infusions. Vital signs were recorded, and a 12-lead electrocardiogram was obtained before and after each injection. Adverse events were recorded and graded according to Common Terminology Criteria for Adverse Events (CTCAE) version 4.03.
as §1
(§3) Calibration of the SPECT/CT camera was performed with a National Institute of Standards and Technology traceable selenium-75 point source (uncertainty in activity 3%) every four weeks. Acquisitions (medium-energy low-penetration collimator) were performed in step and shoot mode using 20 s/view, 64 views/head using a non-circular orbit with a 180° detector configuration in a 128 × 128 matrix. The photo-peak window was set to 208 keV ± 10% (187.2–228.8 keV). Except for the first patient, the quantitative tomographic images (isotropic voxel size 5.08 mm^3) were reconstructed with xSPECT Quant™ (Siemens Healthcare, Siemens Erlangen, Germany) which uses the ordered subset conjugate gradient method (OSCGM) to calculate the quantitative activity distribution. The number of iterations (12, 24 or 60) with one subset and 3D-Gaussian post-filter with full width at half maximum (FWHM) of 16.0 mm and 20.8 mm were selected automatically by the reconstruction algorithm, based on the count statistic. Triple energy window scatter correction, CT-based attenuation correction, and resolution recovery were enabled for all image reconstructions. As the xSPECT Quant™ algorithm was not available at the site initially, images of the first patient were quantitatively reconstructed (isotropic voxel size of 3.9 mm^3) using the OSCGM algorithm with 24 iterations, one subset and a 3D-Gaussian post filter of 10.0 mm FWHM. For these reconstructions, both photo-peak energy windows at 113 keV ± 10% and 208 keV ± 10% were used. All other settings remained as stated above.
(§4) At first a VOI with volume V0 and activity A0 enclosing the tumor and its surrounding background was drawn. Subsequently, the threshold was increased until a new VOI with volume Vspect and activity Aspect separating the tumor activity from background was found. The activity in the tumor at the fourth time point can then be estimated by A4=Aspect-A0-Aspect/V0-VspectVspect-VCT, where the second term is the background correction, with the tumor volume VCT determined in the contrast enhanced CT. Spill in and out of activity from the tumor volume into the background was not considered.
(§5) Time activity curves (TAC) of the tumors were determined using the mean activity of 3 ml threshold VOIs, drawn in the 1, 4, 24 and 72 h p.i. images. A linear model yt=α+λe·t was fitted to the log-transformed data points to estimate the effective half-life Te=ln2/λe . The activity at the first acquisition is then given by A1=A4·e^λe·Δt where Δt is the time difference between the first and fourth acquisition. The total number of disintegrations can then be estimated by N=A1t1/2+∫t1e^-λet^′dt^′ where t1 is the time of the first acquisition.
(§6) The average energy deposition E per disintegration in soft tissue voxels of 3.9 mm^3 and 5.08^3 mm^3 with density ρ=1g/cm^3 was calculated with FLUKA, resulting in the mean tumor dose given by D=N·E/ρ·VCT .
(§7) In case the data was not suitable for single exponential fit, N was calculated numerically using trapezoidal integration until the fourth time point and after with analytical integration of the exponential decay using the half-live of Lutetium-177.
(§8) The energy distribution in ICRP soft tissue of a Lu-177 point source was calculated with the MC-Simulation toolkit FLUKA version 4.1.0.

[2] = system: medullary thyroid carcinoma tumors; test: SPECT/CT based dosimetry of tumors; type: in vivo, humans; conditions: for Mean tumor dose: SPECT/CT dosimetry
Description: as §2, §1, §3, §4, §5, §6, §7, §8

## CSCC[C@H](NC(=O)[C@H](Cc1c[nH]c2ccccc12)NC(=O)CNC(=O)[C@H](Cc1ccc(O)cc1)NC(=O)[C@H](C)NC(=O)[C@@H](CCC(=O)O)NC(=O)[C@@H](CCC(=O)O)NC(=O)[C@@H](CCC(=O)O)NC(=O)[C@@H](CCC(=O)O)NC(=O)[C@@H](CCC(=O)O)NC(=O)[C@@H](CCC(=O)O)NC(=O)CN1CCN(CC(=O)O)CCN(CC(=O)O)CCN(CC(=O)O)CC1)C(=O)N[C@@H](CC(=O)O)C(=O)N[C@@H](Cc1ccccc1)C(N)=O [[^177Lu]Lu-PP-F11N, [^177Lu]Lu-DOTA-(DGlu)6-Ala-Tyr-Gly-Trp-Met-Asp-Phe-NH2, metal not drawn]
CCK2R positive tumors
  Increase in tumor uptake on co-injection of phosphoramidon: not significant
  Increase in tumor uptake on co-injection of thiorphan: only to a minor extent
Dosimetry of kidneys; Entresto premedication, eight patients
  Median absorbed dose of kidneys after premedication compared to without: 2.4 fold
Dosimetry of kidneys; with Entresto premedication
  Kidney dose: 0.11 Gy/GBq
Dosimetry of kidneys; without Entresto premedication
  Kidney dose: 0.05 Gy/GBq
[1]; tumor / bone marrow, 1.08 GBq, without Entresto premedication, patient 4, 2nd tumor, read-out: Tumor-to-bone marrow dose ratio
  tissue to tissue ratio: 1.8
[1]; tumor / bone marrow, with Entresto premedication, patient 4, 2nd tumor, read-out: Tumor-to-bone marrow dose ratio
  tissue to tissue ratio: 1.4
[1]; tumor / kidney, 1.08 GBq, without Entresto premedication, patient 4, 2nd tumor, read-out: Tumor-to-kidney dose ratio
  tissue to tissue ratio: 1
[1]; tumor / kidney, with Entresto premedication, patient 4, 2nd tumor, read-out: Tumor-to-kidney dose ratio
  tissue to tissue ratio: 0.6
[1]; tumor / stomach, 1.08 GBq, without Entresto premedication, patient 4, 2nd tumor, read-out: Tumor-to-stomach dose ratio
  tissue to tissue ratio: 0.2
[1]; tumor / stomach, with Entresto premedication, patient 4, 2nd tumor, read-out: Tumor-to-stomach dose ratio
  tissue to tissue ratio: 0.1
[1]; tumor and bone marrow, 1.08 GBq, without Entresto premedication, patient 7, 2nd tumor, read-out: Tumor-to-bone marrow dose ratio
  tissue to tissue ratio: 15.7
[1]; tumor and bone marrow, with Entresto premedication, patient 7, 2nd tumor, read-out: Tumor-to-bone marrow dose ratio
  tissue to tissue ratio: 30.3
[1]; tumor and kidney, 1.08 GBq, without Entresto premedication, median, read-out: Tumor-to-kidney dose ratio
  tissue to tissue ratio: 8.3
[1]; tumor and kidney, with Entresto premedication, median, read-out: Tumor-to-kidney dose ratio
  tissue to tissue ratio: 7.8
[1]; tumor and kidney, with Entresto premedication, patient 7, 2nd tumor, read-out: Tumor-to-kidney dose ratio
  tissue to tissue ratio: 11.2
[1]; tumor and stomach, 1.08 GBq, without Entresto premedication, median, read-out: Tumor-to-stomach dose ratio
  tissue to tissue ratio: 1.5
[1]; tumor and stomach, with Entresto premedication, median, read-out: Tumor-to-stomach dose ratio
  tissue to tissue ratio: 1.1
[1]; tumor and stomach, with Entresto premedication, patient 7, 2nd tumor, read-out: Tumor-to-stomach dose ratio
  tissue to tissue ratio: 1.3
[2]; with Entresto premedication, median of n = 6 tumor lesions
  Mean tumor dose: 0.74 Gy/GBq
[2]; with Entresto premedication, patient 4, 2nd tumor
  Mean tumor dose: 0.07 Gy/GBq
[2]; without Entresto premedication, median of n = 6 tumor lesions
  Mean tumor dose: 0.28 Gy/GBq
[2]; without Entresto premedication, patient 4, 2nd tumor
  Mean tumor dose: 0.05 Gy/GBq
[2]; human, tumor and bone marrow, iv, total radioactivity, without Entresto premedication, median, read-out: Tumor-to-bone marrow dose ratio
  tissue to tissue ratio: 9.2
